Test results as given in patent EP3408384B1, “MUTATED CELLOBIOSE DEHYDROGENASE WITH MODIFIED SUBSTRATE SPECIFICITY” (priority 2016, dated 2017).

Tested on: OC[C@H]1O[C@@H](O[C@H]2[C@H](O)[C@@H](O)C(O)O[C@@H]2CO)[C@H](O)[C@@H](O)[C@H]1O
Assay: Steady-state kinetics, DCIP-based enzymatic activity assay
Format: biochemical, Neurospora crassa
Conditions: other: apparent constant, 100 mM McIlvaine buffer pH 5.5, DCIP as artificial electron acceptor, 30°C
Experimental: Enzyme activity was assayed at 30°C using the DCIP (Karapetyan et al., 2005 Journal of Biotechnology 121: 34-48) as electron acceptor. Stock solutions of carbohydrates used for kinetic measurements were prepared in the respective buffer and allowed to stand overnight for mutarotation, while stock solutions of electron acceptors were prepared in water and immediately used. The reaction stoichiometry is 1 for the two-electron acceptor DCIP (1 mole of DCIP reduced per mole of carbohydrate oxidized. Kinetic constants were calculated by fitting the observed data to the Henri-Michaelis-Menten equation or to the adapted model for substrate inhibition using nonlinear least-squares regression and the program SigmaPlot (Systat Software, San Jose, CF, USA). The protein concentration was determined with the Bradford assay.
CDH from N. crassa oxidises glucose and galactose (Harreither et al., 2007), which has negative side effects on the lactose detection accuracy if glucose and galactose are present. […] The enzyme variant N722Q was heterologously produced in P. pastoris according to the explained routines and compared to the recombinant wild-type CDH from N. crassa. […] To investigate the effect of the mutation in the N. crassa variant a full characterization of steady-state constants was performed (Tables 2 and 3). Table 2: Apparent kinetic constants of wtCDH for indicated electron donors in 100 mM McIlvaine buffer at pH 5.5 using DCIP as artificial electron acceptor
Table 3: Apparent kinetic constants of N722Q N. crassa sensor for indicated electron donors in 100 mM McIlvaine buffer at pH 5.5 using DCIP as artificial electron acceptor

For “Neurospora crassa cellobiose dehydrogenase (CDH) variant N722Q (N722 of SEQ ID NO: 4 substituted by glutamine) (Neurospora crassa OR74A; N722Q)”, the Km was 2.18 ± 0.28 > 10 M^b mM, the kcat was 77.92 s⁻¹ and the kcat/Km was 35740 M⁻¹ s⁻¹.
